# Measurements from patent US20120087916A1, “ANTI-ICAM-1 ANTIBODY, USES AND METHODS” (priority 2009, published 2012).
# Entries after “also recorded” stand apart in the source; their conditions may differ.
# Experiments:
# B-cell lymphoma = test: SCID/B-cell lymphoma tumour xenograft models; type: in vivo, SCID mice; conditions: prophylactic and established models; data not shown
# OPM-2 myeloma cells = test: SCID xenograft of ICAM-1-negative myeloma cell line; type: in vivo, SCID mice; conditions: ICAM-1-negative OPM-2; 2 mg/kg twice-weekly intraperitoneal from Day 1
# Procedure: (§1) Antibody treatment with 2 mg/kg BI-AB or control IgG1 was started at Day 1 and was continued on a twice-weekly intraperitoneal dosing regimen. Mice were sacrificed when tumour sizes reached the ethical limit. […] Statistical significance was calculated relative to control antibody treatment using Student t test. Statistical significance was considered for *p<0.05, **p <0.01, and ***p<0.001. ICAM-1-intercellular adhesion molecule 1; SCID=severe combined immunodeficiency
# [1] = Pharmacokinetics in the cynomolgus monkey, escalation dose toxicity study; type: in vivo, cynomolgus monkeys; conditions: 1-100 mg/kg
# Excerpt: • Table 1: BI-AB levels associated 10, 50, and 90% anti-tumour activity correlated with levels of receptor binding. • a—determined in the most sensitive setting in the ARH-77/SCID in vivo tumour model, i.e., early antibody administration. • b—determined in the advanced ARH-77/SCID in vivo tumour model (mice carrying established tumours) • Table 2: Single dose pharmacokinetics of BI-AB following single IV bolus injection • Table 3: Pharmacokinetics of BI-AB following single escalating IV bolus injection The pharmacokinetics of BI-AB was investigated at dose levels of 1, 2, 8, 20, 50, and 100 mg/kg in the escalation dose toxicity study in cynomolgus monkeys. Samples for plasma analysis were taken after all dose levels. […] Cmax were generally obtained at the first sampling time of 0.5 hours post-dose. However at 100 mg/kg the Cmax was reached 8 hours post-dose. Serum concentrations declined in a generally bi-phasic manner with an elimination time ranging from 69 to 264 hours. […] There was some carry-over of the compound between treatments due to the long half-life of BI-AB.
# The pharmacokinetics of BI-AB was investigated at dose levels of 1, 2, 8, 20, 50, and 100 mg/kg in the escalation dose toxicity study in cynomolgus monkeys. Samples for plasma analysis were taken after all dose levels.
# Cmax were generally obtained at the first sampling time of 0.5 hours post-dose. However at 100 mg/kg the Cmax was reached 8 hours post-dose. Serum concentrations declined in a generally bi-phasic manner with an elimination time ranging from 69 to 264 hours. […] There was some carry-over of the compound between treatments due to the long half-life of BI-AB.
# [2] = system: NCI-H929, EJM, RPMI-8226 myeloma cells; test: SCID xenografts of CD20-negative ICAM-1-positive myeloma cell lines; type: in vivo, SCID mice; conditions: CD20-negative ICAM-1-positive lines, 2 mg/kg twice-weekly intraperitoneal from Day 1
# Procedure: as §1
# [3] = BI-AB serum trough levels by ELISA in the ARH-77/SCID tumour model; type: in vivo, SCID mice; conditions: corresponds to 0.004 mg/kg dose; from fitted five parameter log-log curve
# Procedure: (§2) FIG. 5: Calculation of MABEL: determination of BI-AB IC10 value using in vivo pharmacology assay and in vitro correlation with binding. • (A) Tumour cells were injected subcutaneously into the left flank of SCID mice (n=8 per group). Mice received twice-weekly intraperitoneal injections with BI-AB at a range of 20 to 0.002 mg/kg (until control group had to be sacrificed). […] IC10=concentration at which there is 10% inhibition; ELISA=enzyme-linked immunosorbent assay; MABEL=minimum anticipated biological effect level. • (D) ARH-77myeloma cells were injected subcutaneously into the left flank of SCID mice (n=8 per group). Mice received twice-weekly intravenous injections of BI-AB at 0.002-20 mg/kg until control group had to be sacrificed. Blood samples were collected at termination and analyzed by ELISA to determine BI-AB serum trough levels. Trough BI-AB serum concentrations were plotted as a function of anti-tumor activity and fitted using five parameter log-log curve and XLfit software (IDBS, Guildford, United Kingdom).
# Mean BI-AB serum trough concentrations of different mouse dose groups were determined by ELISA analysis of blood samples collected at different time-points during the course of in vivo experimentation. […]
# [4] = biological target: T1, ICAM-1 epitopes on ARH-77 myeloma cells (Homo sapiens, UniProt P05362); test: Receptor occupancy / binding in vitro using human tumour cells
# T1 construct: endogenous in cells; host or cells: ARH-77 myeloma cells
# T1 sequence (P05362 28-532): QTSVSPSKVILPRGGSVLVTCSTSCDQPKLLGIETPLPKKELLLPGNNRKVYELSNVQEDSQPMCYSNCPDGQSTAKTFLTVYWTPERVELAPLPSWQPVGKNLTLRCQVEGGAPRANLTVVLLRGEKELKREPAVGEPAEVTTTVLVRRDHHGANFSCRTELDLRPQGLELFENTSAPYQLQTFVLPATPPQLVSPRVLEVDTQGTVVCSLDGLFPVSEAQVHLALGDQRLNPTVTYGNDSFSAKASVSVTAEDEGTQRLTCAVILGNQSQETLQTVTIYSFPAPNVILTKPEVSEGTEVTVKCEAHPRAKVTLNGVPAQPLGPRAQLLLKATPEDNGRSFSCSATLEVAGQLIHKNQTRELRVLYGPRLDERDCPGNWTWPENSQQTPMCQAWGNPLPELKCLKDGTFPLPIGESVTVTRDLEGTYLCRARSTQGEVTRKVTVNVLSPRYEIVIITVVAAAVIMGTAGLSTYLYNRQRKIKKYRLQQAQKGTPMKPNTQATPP
# Procedure: as §2
# Receptor occupancy has been examined in vitro using human tumour cells and the BI-AB level corresponding to binding saturation has been identified. It is assumed that at this concentration, ICAM-1 epitopes on cells of the vascular compartment should be saturated, and any side effects related to the physiological function of ICAM-1 are expected to be […]. […]
# ARH-77 myeloma cells = test: SCID/ARH-77 myeloma xenograft model (early and established subcutaneous tumours); type: in vivo, SCID mice
# Procedure: There were 8 to 10 animals per treatment group. • A and B: Early tumour model; treatment started 1 day after myeloma cell inoculation and continued until tumour volumes reached the ethical limit. (A) Tumour volume as a function of antibody dose. (B) Kaplan-Meier survival graph as a function of antibody dose. • (C) Established xenograft model; treatment with antibodies started when tumours reached a volume of approximately 100 mm^3. […] Statistical significance was calculated relative to control antibody treatment using Student t test (tumour volume) or the log-rank test (mouse survival) using Graphpad Prism software. Statistical significance was considered for *p<0.05, **p<0.01, and ***p<0.001. Graphs illustrate representative experiments out of several performed.
# Blood samples were collected at termination and analyzed by ELISA to determine BI-AB serum trough levels. Trough BI-AB serum concentrations were plotted as a function of anti-tumor activity and fitted using five parameter log-log curve and XLfit software (IDBS, Guildford, United Kingdom).
# [5] = system: human multiple myeloma tumour cells; test: Disseminated tumour model (advanced experimental multiple myeloma), intravenous tumour cell inoculation; type: in vivo, SCID mice
# Procedure: SCID mice were irradiated 5 days before intravenous tumour cell inoculation. Animals received intravenous injections with antibody at 2 mg/kg or bortezomib (Velcade) at 0.5 mg/kg on Days 7, 10, 14, and 17 (as indicated by arrows in graph). There were 8 mice per treatment group. Statistical significance was calculated using Log-rank Graphpad Prism software. Significance was determined at *p<0.05, **p<0.01, and ***p<0.001.
# BI-AB anti-myeloma activity has additionally been investigated in a disseminated tumour model (a well-established experimental model of human multiple myeloma) at an independent contract research organization. […] After 190 days, when the experiment was terminated, 25% of BI-AB-treated mice were still alive.
# [6] = Pharmacokinetics in the rat, single IV bolus injection; type: in vivo
# Excerpt: A pharmacokinetic (PK) study of BI-AB in the rat has been performed. In this study, the doses of the antibody tested were in such excess in relation to the target antigen concentration that any binding to the target antigen would not be of significant importance for the PK profile. This fact serves as the rationale for performing a PK study in a species where the antibody will not bind to the target antigen. The pharmacokinetics of BI-AB in the rat has been investigated following a single IV bolus injection at dose levels of 0.5, 2.5 and 10 mg/kg.
# ICAM-1 = ICAM-1 (Homo sapiens, UniProt P05362); test: Binding of BI-AB to ICAM-1
# ICAM-1, sequence (P05362 28-532): as above
# Excerpt: BI-AB is a fully human immunoglobulin G subtype 1 (IgG1) monoclonal antibody expressed in Chinese Hamster Ovarian (CHO) cells. The BI-AB antibody has a theoretical molecular weight of approximately 144 kDa based on the predicted amino acid sequence. Mass spectrometry, peptide mapping and SDS-PAGE will determine molecular mass and primary and secondary structures. The biological activity is quantified using an ELISA assay, which quantitatively measures the binding of the BI-AB to ICAM-1.
# [7] = single IV bolus 0.5, 2.5 and 10 mg/kg
molecule,measurement,setting,value
"BI-AB: fully human, high-affinity IgG1 mAb specific for ICAM-1 generated from the n-CoDeR human antibody fragment library (antibody, V domains shown) VH: EVQLLESGGGLVQPGGSLRLSCAASGFTFSNAWMSWVRQAPGKGLEWVAFIWYDGSNKYYADSVKGRFTISRDNSKNTLYLQMNSLRAEDTAVYYCARYSGWYFDYWGQGTLVTVSS VL: QSVLTQPPSASGTPGQRVTISCTGSSSNIGAGYDVHWYQQLPGTAPKLLIYDNNNRPSGVPDRFSGSKSGTSASLAISGLRSEDEADYYCQSYDSSLSAWLFGGGTKLTVLG",anti-lymphoma activity,B-cell lymphoma,significant anti-lymphoma activity
same,effect on tumour growth,OPM-2 myeloma cells,no effect on tumour growth; also recorded: did not affect tumour growth
same,systemic exposure versus dose,[1],increased roughly in proportion to the dose
same,systemic exposure versus gender,[1],without gender deviations
same,volumes of distribution versus dose,[1],no dose-dependency
same,anti-myeloma activity (tumour growth),[2],significant and ICAM-1-dependent anti-myeloma activity
same,steady state trough serum concentration at IC10 inhibition of tumour growth,[3],0.028 µg/mL
same,ARH-77 ICAM-1 epitopes occupied by antibody in vitro,[4]; at 28 ng/mL BI-AB,approximately 30%
same,binding to ARH-77 myeloma cells,[4]; in vitro,binds to ARH-77 myeloma cells in a dose-dependent manner
same,"efficacy and potency compared with Rituximab (reducing tumour growth, prolonging survival)","ARH-77 myeloma cells; SCID/ARH-77, prophylactic and established xenograft models, Rituximab e.g. 20 mg/kg",more efficacious and potent compared with Rituximab; also recorded: comparable or improved activity
same,"in vivo anti-myeloma efficacy (tumour volume, survival)","ARH-77 myeloma cells; SCID/ARH-77 xenograft, twice-weekly intraperitoneal, doses 0.016, 0.16, 1.6 (16) mg/kg",significant in vivo anti-myeloma efficacy and potency
same,MABEL/IC10 dose (10% inhibition of tumour growth),"ARH-77 myeloma cells; early antibody administration, twice-weekly dosing regimen",4 µg/kg
same,survival compared with control-treated mice,"[5]; 2 mg/kg intravenous Days 7, 10, 14, 17 (or start 1 day) after tumour cell inoculation",confers protection against advanced experimental multiple myeloma; also recorded: significantly prolonged survival
same,benchmark against Bortezomib,[5]; BI-AB 2 mg/kg vs bortezomib (Velcade) 0.5 mg/kg,superior
same,treated mice still alive,"[5]; after 190 days, when the experiment was terminated",25%
same,systemic exposure versus sex,[6]; single IV bolus,generally independent of sex
same,clearance and volumes of distribution (Vz and Vss) versus dose,[6]; [7],dose independent
same,systemic exposure versus dose,[6]; [7],increased roughly in proportion to dose
same,time of maximum serum concentrations,[6]; [7],within the first hour
same,affinity and specificity of binding to ICAM-1,ICAM-1,binds with high affinity and specificity to ICAM-1
